Data: PMC8568338 (Cell reports, 2021)

Target: the molecule itself
Experiment: native gel or EMSA

B1: Strep-tagged VP40[change] (VP40 truncated after residue 194) (domain or fragment)
chain: MRRVILPTAPPEYMEAIYPVRSNSTIARGGNSNTGFLTPESVNGDTPSNPLRPIADDTIDHASHTPGSVSSAFILEAMVNVISGPKVLMKQIPIWLPLGVADQKTYSFDSTTAAIMLASYTITHFGKATNPLVRVNRLGPGIPDHPLRLLRIGNQAFLQEFVLPPVQLPQYFTFDLTALKLITQPLPAATWTDD
stoichiometry N: 8
